Results reported in publication PMC6476931, “The Complex Fibrinogen Interactions of the Staphylococcus aureus Coagulases” (Frontiers in Cellular and Infection Microbiology, 2019).

B1: GST-Coa-N (N-terminal half of Coa) (domain or fragment)
chain: IVTKDYSGKSQVNAGSKNGTLIDSRYLNSALYYLEDYIIYAIGLTNKYEYGDNIYKEAKDRLLEKVLREDQYLLERKKSQYEDYKQWYANYKKENPRTDLKMANFHKYNLEELSMKEYNELQDALKRALDDFHREVKDIKDKNSDLKTFNAAEEDKATKEVYDLVSEIDTLVVSYYGDKDYGEHAKELRAKLDLILGDTDNPHKITNERIKKEMIDDLNSIIDDFFMETKQNRPKSITKYNPTTHNYKTNSDNKPNFDKLVEETKKAVKEADDSWKKKTVKKYG
modifications: plasma-purified hexamer (AαBβγ)2, disulfide-linked, N-glycosylated, fibrinopeptides A and B retained. Predominant plasma forms assumed: 610-residue Aα and 411-residue γA (the P02679 canonical …)
B2: Human fibrinogen (complex)
chain 1: ADSGEGDFLAEGGGVRGPRVVERHQSACKDSDWPFCSDEDWNYKCPSGCRMKGLIDEVNQDFTNRINKLKNSLFEYQKNNKDSHSLTTNIMEILRGDFSSANNRDNTYNRVSEDLRSRIEVLKRKVIEKVQHIQLLQKNVRAQLVDMKRLEVDIDIKIRSCRGSCSRALAREVDLKDYEDQQKQLEQVIAKDLLPSRDRQHLPLIKMKPVPDLVPGNFKSQLQKVPPEWKALTDMPQMRMELERPGGNEITRGGSTSYGTGSETESPRNPSSAGSWNSGSSGPGSTGNRNPGSSGTGGTATWKPGSSGPGSTGSWNSGSSGTGSTGNQNPGSPRPGSTGTWNPGSSERGSAGHWTSESSVSGSTGQWHSESGSFRPDSPGSGNARPNNPDWGTFEEVSGNVSPGTRREYHTEKLVTSKGDKELRTGKEKVTSGSTTTTRRSCSKTVTKTVIGPDGHKEVTKEVVTSEDGSDCPEAMDLGTLSGIGTLDGFRHRHPDEAAFFDTASTGKTFPGFFSPMLGEFVSETESRGSESGIFTNTKESSSHHPGIAEFPSRGKSSSYSKQFTSSTSYNRGDSTFESKSYKMADEAGSEADHEGTHSTKRGHAKSRPV
chain 2: QGVNDNEEGFFSARGHRPLDKKREEAPSLRPAPPPISGGGYRARPAKAAATQKKVERKAPDAGGCLHADPDLGVLCPTGCQLQEALLQQERPIRNSVDELNNNVEAVSQTSSSSFQYMYLLKDLWQKRQKQVKDNENVVNEYSSELEKHQLYIDETVNSNIPTNLRVLRSILENLRSKIQKLESDVSAQMEYCRTPCTVSCNIPVVSGKECEEIIRKGGETSEMYLIQPDSSVKPYRVYCDMNTENGGWTVIQNRQDGSVDFGRKWDPYKQGFGNVATNTDGKNYCGLPGEYWLGNDKISQLTRMGPTELLIEMEDWKGDKVKAHYGGFTVQNEANKYQISVNKYRGTAGNALMDGASQLMGENRTMTIHNGMFFSTYDRDNDGWLTSDPRKQCSKEDGGGWWYNRCHAANPNGRYYWGGQYTWDMAKHGTDDGVVWMNWKGSWYSMRKMSMKIRPFFPQQ
chain 3: YVATRDNCCILDERFGSYCPTTCGIADFLSTYQTKVDKDLQSLEDILHQVENKTSEVKQLIKAIQLTYNPDESSKPNMIDAATLKSRKMLEEIMKYEASILTHDSSIRYLQEIYNSNNQKIVNLKEKVAQLEAQCQEPCKDTVQIHDITGKDCQDIANKGAKQSGLYFIKPLKANQQFLVYCEIDGSGNGWTVFQKRLDGSVDFKKNWIQYKEGFGHLSPTGTTEFWLGNEKIHLISTQSAIPYALRVELEDWNGRTSTADYAMFKVGPEADKYRLTYAYFAGGDAGDAFDGFDFGDDPSDKFFTSHNGMQFSTWDNDNDKFEGNCAEQDGSGWWMNKCHAGHLNGVYYQGGTYSKASTPNGYDNGIIWATWKTRWYSMKKTTMKIIPFNRLTIGEGQQHHLGGAKQAGDV
modifications: plasma-purified hexamer (AαBβγ)2, disulfide-linked, N-glycosylated, fibrinopeptides A and B retained. Predominant plasma forms assumed: 610-residue Aα and 411-residue γA (the P02679 canonical …)
B3: GST-Coa-C (C-terminal half of Coa) (domain or fragment)
chain: ETETKSPVVKEEKKVEEPQAPKVDNQQEVKTTAGKAEETTQPVAQPLVKIPQGTITGEIVKGPEYPTMENKTVQGEIVQGPDFLTMEQSGPSLSNNYTNPPLTNPILEGLEGSSSKLEIKPQGTESTLKGTQGESSDIEVKPQATETTEASQYGPRPQFNKTPKYVKYRDAGTGIREYNDGTFGYEARPRFNKPSETNAYNVTTHANGQVSYGARPTYKKPSETNAYNVTTHANGQVSYGARPTQNKPSKTNAYNVTTHGNGQVSYGARPTQNKPSKTNAYNVTTHANGQVSYGARPTYKKPSKTNAYNVTTHADGTATYGPRVTK
modifications: plasma-purified hexamer (AαBβγ)2, disulfide-linked, N-glycosylated, fibrinopeptides A and B retained. Predominant plasma forms assumed: 610-residue Aα and 411-residue γA (the P02679 canonical …)

Legend:
Details in all cases: both partners purified
Human fibrinogen = Human fibrinogen (human, UniProt P02671 36-866; P02675 45-491; P02679 27-453); assay: ELISA; Fg coated on wells (5 μg/ml, 0.5 μg/well); GST-vWbp or GST-Coa proteins in 1% BSA, 0.05% Tween 20, TBS, 1 h at room temperature; detected with HRP anti-GST; one-site fit, apparent KD, mean of three experiments
Sequence of Human fibrinogen (P02671 36-866, one chain of several): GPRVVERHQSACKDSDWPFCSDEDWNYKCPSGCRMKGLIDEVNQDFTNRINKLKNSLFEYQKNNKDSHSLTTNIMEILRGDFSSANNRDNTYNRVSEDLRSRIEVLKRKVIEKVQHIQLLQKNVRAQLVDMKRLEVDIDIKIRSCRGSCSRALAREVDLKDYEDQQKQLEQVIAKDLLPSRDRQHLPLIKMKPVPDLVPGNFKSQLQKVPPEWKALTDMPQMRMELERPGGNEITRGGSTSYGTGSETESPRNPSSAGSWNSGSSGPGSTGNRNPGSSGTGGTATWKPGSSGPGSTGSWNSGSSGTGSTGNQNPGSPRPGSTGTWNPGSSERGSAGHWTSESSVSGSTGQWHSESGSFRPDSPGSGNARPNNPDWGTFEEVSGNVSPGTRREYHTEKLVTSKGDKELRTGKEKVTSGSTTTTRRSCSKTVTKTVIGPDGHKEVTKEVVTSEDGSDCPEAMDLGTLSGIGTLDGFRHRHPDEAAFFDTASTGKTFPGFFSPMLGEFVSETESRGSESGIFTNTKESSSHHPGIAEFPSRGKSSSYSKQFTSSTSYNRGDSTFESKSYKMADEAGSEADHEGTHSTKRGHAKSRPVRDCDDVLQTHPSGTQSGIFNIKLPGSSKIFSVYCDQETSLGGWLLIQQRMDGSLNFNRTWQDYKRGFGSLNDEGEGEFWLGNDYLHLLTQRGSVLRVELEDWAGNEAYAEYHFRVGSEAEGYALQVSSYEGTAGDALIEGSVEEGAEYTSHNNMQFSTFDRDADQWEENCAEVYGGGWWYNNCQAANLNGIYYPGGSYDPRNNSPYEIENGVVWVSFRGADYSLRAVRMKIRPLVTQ

[1] = molecular target: T1, GST-vWbp (full-length von Willebrand factor binding protein) (S. aureus strain Newman); assay: ELISA; GST-vWbp or GST-Coa coated on wells (5 μg/ml, 0.5 μg/well); soluble Fg in 1% BSA, 0.05% Tween 20, TBS; detected with HRP anti-human Fg; one-site fit, apparent KD, mean of three experiments
T1 construct: Cloned in pGEX-5x-1; also called full-length vWbp; source: E. coli BL21 (DE3)-derivative Acella, purified (glutathione-Sepharose 4B, gel permeation); not shown: GST, N-terminal, kept

[2] = molecular target: T2, GST-Coa (full-length Coagulase) (S. aureus strain Newman); assay: as above
T2 construct: Coagulase (Coa), S. aureus strain Newman, coa gene amplified from chromosomal DNA; cloning described in Ko et al., 2016; the recombinant protein probably lacks it; also called intact Coa; source: E. coli BL21 (DE3)-derivative Acella, purified (glutathione-Sepharose 4B, gel permeation); not shown: GST, N-terminal, kept

[3] = molecular target: T1, GST-vWbp (full-length von Willebrand …); assay: ELISA; Fg coated on wells (5 μg/ml, 0.5 μg/well); GST-vWbp or GST-Coa proteins in 1% BSA, 0.05% Tween 20, TBS, 1 h at room temperature; detected with HRP anti-GST; one-site fit, apparent KD, mean of three experiments
[4] = molecular target: T2, GST-Coa (full-length Coagulase); assay: as above

Row | Binder | Kd (Human fibrinogen) | Kd [1] | Kd [2] | Kd [3] | Kd [4]
1 | B1 | 20 nM |  |  |  | 
2 | B2 |  | 5.3 nM | 0.09 nM | 9.9 nM | 2.4 nM
3 | B3 | 0.46 nM |  |  |  | 
